Target: T1, 人SALL4蛋白 (human, UniProt Q9UJQ4 1-1053, limits assumed)
T1 construct: Endogenous SALL4 in fixed tissue sections; also called human SALL4
T1 sequence (looked up): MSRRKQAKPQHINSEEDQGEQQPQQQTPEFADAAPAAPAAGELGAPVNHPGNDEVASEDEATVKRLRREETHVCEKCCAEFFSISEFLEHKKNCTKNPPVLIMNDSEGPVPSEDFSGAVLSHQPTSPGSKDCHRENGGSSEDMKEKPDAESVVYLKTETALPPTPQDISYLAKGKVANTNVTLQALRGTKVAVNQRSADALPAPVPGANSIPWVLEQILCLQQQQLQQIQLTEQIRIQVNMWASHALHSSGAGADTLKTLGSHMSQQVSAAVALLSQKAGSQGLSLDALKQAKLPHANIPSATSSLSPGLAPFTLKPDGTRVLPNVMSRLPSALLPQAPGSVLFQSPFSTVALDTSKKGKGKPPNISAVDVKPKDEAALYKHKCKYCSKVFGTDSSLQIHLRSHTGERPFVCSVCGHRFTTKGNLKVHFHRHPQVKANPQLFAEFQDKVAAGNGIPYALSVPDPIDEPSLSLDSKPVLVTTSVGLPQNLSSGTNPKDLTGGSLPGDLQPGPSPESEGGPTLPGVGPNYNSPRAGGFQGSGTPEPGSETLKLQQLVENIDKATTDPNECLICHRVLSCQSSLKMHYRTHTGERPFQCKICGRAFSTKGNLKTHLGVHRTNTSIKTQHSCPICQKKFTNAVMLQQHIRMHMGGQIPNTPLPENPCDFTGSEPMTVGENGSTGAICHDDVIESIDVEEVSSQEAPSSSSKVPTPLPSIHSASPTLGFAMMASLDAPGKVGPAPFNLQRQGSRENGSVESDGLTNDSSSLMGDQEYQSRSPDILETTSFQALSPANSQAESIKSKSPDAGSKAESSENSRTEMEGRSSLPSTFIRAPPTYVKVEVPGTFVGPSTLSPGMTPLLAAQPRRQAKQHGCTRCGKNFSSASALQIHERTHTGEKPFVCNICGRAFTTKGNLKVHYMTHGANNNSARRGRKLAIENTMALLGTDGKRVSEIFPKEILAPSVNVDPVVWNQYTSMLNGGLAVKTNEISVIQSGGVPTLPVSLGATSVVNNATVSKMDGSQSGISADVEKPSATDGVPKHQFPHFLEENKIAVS
Experiment: IHC on paraffin sections of human seminoma, primary antibody 1:100

- binding result: binds
B1: 抗人SALL4兔单克隆抗体 (antibody, V domains shown)
VH: QSLEESGGRLVTPGGSLTLTCTVSGFSLSSNSITWVRQAPGKGLEWIGTMNIDNSTYYMSWAKGRLTISKTSTTVTLKMTSLTTEDTATYFCARIAVVSNTDIWGPGTLVTVSF
VL: AQALTQTPSSVSAAVGGTVTISCQSSQNVYDANALSWYQQKPGQPPKRLIYSASTLASGVPSRFKGSGSGTQFTLTISGVQCDDAASYYCAGVYYGKIGFGGGTEVVVKG
notes: also called 试验例2制备的抗人SALL4兔单克隆抗体; 识别人SALL4的兔单克隆抗体
